Results published in the supplement of paper PMC9112550, “Optimization of the antimicrobial peptide Bac7 by deep mutational scanning” (BMC Biology, 2022).

System: Escherichia coli TOP10
Experiment: shrunken log2 fold change of peptide-encoding DNA abundance (4.5 h post-induction vs induction); higher = less antimicrobial activity (less host growth inhibition)
Conditions: time post-induction: 4.5 h; library: site-saturation at positions 5, 18, 19, 20
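Also: peptides expressed intracellularly from a pBAD plasmid library in pooled LB shake-flask culture, induced with 0.3% L-arabinose, DNA abundance read by NGS, three biological replicates, DESeq2 with apeglm shrinkage.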

Row | Sequence | shrunken log2 fold change
1 | RRIRHRPPRLPRPRPRPQGTPRP | -0.284
2 | RRIRIRPPRLPRPRPRPMRSPRP | 0.000106
3 | RRIRRRPPRLPRPRPRPPEFPRP | 0.614
4 | RRIRCRPPRLPRPRPRPMLEPRP | 0.293
5 | RRIRFRPPRLPRPRPRPYCIPRP | -0.597
6 | RRIRSRPPRLPRPRPRPDYIPRP | -0.443
7 | RRIRYRPPRLPRPRPRPGCQPRP | 0.0142
8 | RRIRNRPPRLPRPRPRPHYYPRP | -0.356
9 | RRIRVRPPRLPRPRPRPLSPPRP | -0.172
10 | RRIRDRPPRLPRPRPRPANQPRP | 0.253
11 | RRIRHRPPRLPRPRPRPYPDPRP | 0.0372
12 | RRIRERPPRLPRPRPRPVWEPRP | 0.239
13 | RRIRRRPPRLPRPRPRPFMVPRP | -0.242
14 | RRIRARPPRLPRPRPRPQLEPRP | 0.63
15 | RRIRTRPPRLPRPRPRPMSKPRP | -0.0499
16 | RRIRWRPPRLPRPRPRPLITPRP | 0.0192
17 | RRIRSRPPRLPRPRPRPHSDPRP | -0.0834
18 | RRIRKRPPRLPRPRPRPRNQPRP | 0.493
19 | RRIRWRPPRLPRPRPRPDYQPRP | -0.101
20 | RRIRYRPPRLPRPRPRPSKRPRP | -0.236
21 | RRIRNRPPRLPRPRPRPIWGPRP | -0.0075
22 | RRIRHRPPRLPRPRPRPDKGPRP | 0.0349
23 | RRIRTRPPRLPRPRPRPNGLPRP | -0.00146
24 | RRIRDRPPRLPRPRPRPWMGPRP | -0.368
25 | RRIRIRPPRLPRPRPRPVWCPRP | 0.148

Row | Sequence | shrunken log2 fold change
26 | RRIRKRPPRLPRPRPRPPFKPRP | 0.498
27 | RRIRWRPPRLPRPRPRPNVLPRP | -0.0626
28 | RRIRDRPPRLPRPRPRPKGKPRP | 0.142
29 | RRIRPRPPRLPRPRPRPQTVPRP | 0.184
30 | RRIRSRPPRLPRPRPRPHMQPRP | -0.264
31 | RRIRHRPPRLPRPRPRPDLTPRP | -0.000777
32 | RRIRIRPPRLPRPRPRPPAVPRP | 0.279
33 | RRIRHRPPRLPRPRPRPRMIPRP | -8.79e-05
34 | RRIRPRPPRLPRPRPRPEYQPRP | 0.288
35 | RRIRYRPPRLPRPRPRPDKIPRP | -0.155
36 | RRIRLRPPRLPRPRPRPHDQPRP | 0.276
37 | RRIRGRPPRLPRPRPRPSNPPRP | 0.14
38 | RRIRWRPPRLPRPRPRPPALPRP | 0.433
39 | RRIRYRPPRLPRPRPRPLPGPRP | -0.139
40 | RRIRWRPPRLPRPRPRPWQTPRP | -0.0178
41 | RRIRHRPPRLPRPRPRPKILPRP | 0.0673
42 | RRIRWRPPRLPRPRPRPPAIPRP | 0.178
43 | RRIRNRPPRLPRPRPRPVTFPRP | -0.356
44 | RRIRARPPRLPRPRPRPFSVPRP | -0.107
45 | RRIRIRPPRLPRPRPRPFGQPRP | -0.259
46 | RRIRGRPPRLPRPRPRPCNYPRP | -0.11
47 | RRIRMRPPRLPRPRPRPTGTPRP | 0.407
48 | RRIRYRPPRLPRPRPRPSQRPRP | -0.0178
49 | RRIRQRPPRLPRPRPRPARMPRP | 0.195
50 | RRIRERPPRLPRPRPRPCEQPRP | -0.0101

Row | Sequence | shrunken log2 fold change
51 | RRIRWRPPRLPRPRPRPVTKPRP | 0.235
52 | RRIRCRPPRLPRPRPRPWPHPRP | -0.0205
53 | RRIRLRPPRLPRPRPRPNFIPRP | -0.228
54 | RRIRCRPPRLPRPRPRPHLVPRP | 0.565
55 | RRIRFRPPRLPRPRPRPVWPPRP | 0.263
56 | RRIRWRPPRLPRPRPRPQSLPRP | 0.00606
57 | RRIRVRPPRLPRPRPRPWMAPRP | -0.338
58 | RRIRFRPPRLPRPRPRPIMRPRP | 0.0101
59 | RRIRTRPPRLPRPRPRPHHDPRP | -0.469
60 | RRIRNRPPRLPRPRPRPHVPPRP | -0.528
61 | RRIRGRPPRLPRPRPRPSWEPRP | 0.0693
62 | RRIRIRPPRLPRPRPRPGSVPRP | -0.258
63 | RRIRFRPPRLPRPRPRPTDGPRP | 0.0745
64 | RRIRYRPPRLPRPRPRPAKGPRP | -0.183
65 | RRIRSRPPRLPRPRPRPSRVPRP | 0.107
66 | RRIRHRPPRLPRPRPRPHYEPRP | 0.0367
67 | RRIRDRPPRLPRPRPRPLTNPRP | -0.19
68 | RRIRDRPPRLPRPRPRPEGKPRP | -0.0117
69 | RRIRKRPPRLPRPRPRPVMDPRP | -0.0489
70 | RRIRSRPPRLPRPRPRPQSSPRP | -0.192
71 | RRIRRRPPRLPRPRPRPKPPPRP | 0.735
72 | RRIRRRPPRLPRPRPRPVINPRP | -0.0966
73 | RRIRHRPPRLPRPRPRPMDDPRP | -0.118
74 | RRIRGRPPRLPRPRPRPGNTPRP | 0.171
75 | RRIRMRPPRLPRPRPRPEYWPRP | 0.339

Row | Sequence | shrunken log2 fold change
76 | RRIRYRPPRLPRPRPRPEPCPRP | 0.189
77 | RRIRVRPPRLPRPRPRPGAMPRP | 0.0686
78 | RRIRHRPPRLPRPRPRPFWYPRP | -0.167
79 | RRIRFRPPRLPRPRPRPNKMPRP | -0.231
80 | RRIRTRPPRLPRPRPRPWFYPRP | -0.54
81 | RRIRYRPPRLPRPRPRPWKSPRP | -0.118
82 | RRIRMRPPRLPRPRPRPEYPPRP | 0.0399
83 | RRIRIRPPRLPRPRPRPCDCPRP | -0.0657
84 | RRIRFRPPRLPRPRPRPHFSPRP | -0.24
85 | RRIRHRPPRLPRPRPRPWRKPRP | -0.00968
86 | RRIRKRPPRLPRPRPRPKWQPRP | 0.0343
87 | RRIRFRPPRLPRPRPRPYDRPRP | -0.0252
88 | RRIRWRPPRLPRPRPRPCNQPRP | -0.78
89 | RRIRERPPRLPRPRPRPVHFPRP | 0.0364
90 | RRIRDRPPRLPRPRPRPISHPRP | 0.0261
91 | RRIRERPPRLPRPRPRPDFSPRP | 0.0617
92 | RRIRLRPPRLPRPRPRPARGPRP | 0.565
93 | RRIRFRPPRLPRPRPRPLYVPRP | -0.631
94 | RRIRCRPPRLPRPRPRPNNQPRP | -0.75
95 | RRIRNRPPRLPRPRPRPKANPRP | 0.177
96 | RRIRERPPRLPRPRPRPDNNPRP | -0.237
97 | RRIRRRPPRLPRPRPRPEHSPRP | 0.143
98 | RRIRNRPPRLPRPRPRPSLIPRP | -0.138
99 | RRIRQRPPRLPRPRPRPWKYPRP | -0.149
100 | RRIRYRPPRLPRPRPRPRGEPRP | -0.101

Row | Sequence | shrunken log2 fold change
101 | RRIRHRPPRLPRPRPRPWGMPRP | -0.0998
102 | RRIRSRPPRLPRPRPRPHPQPRP | 0.0419
103 | RRIRNRPPRLPRPRPRPCTVPRP | -0.8
104 | RRIRHRPPRLPRPRPRPAWMPRP | 0.574
105 | RRIRARPPRLPRPRPRPIRTPRP | 0.0627
106 | RRIRSRPPRLPRPRPRPFQQPRP | 0.000179
107 | RRIRLRPPRLPRPRPRPWRFPRP | 0.271
108 | RRIRNRPPRLPRPRPRPYFSPRP | -0.225
109 | RRIRKRPPRLPRPRPRPNAFPRP | 0.0186
110 | RRIRLRPPRLPRPRPRPKPEPRP | 0.249
111 | RRIRDRPPRLPRPRPRPEHSPRP | -0.027
112 | RRIRNRPPRLPRPRPRPCAEPRP | -0.169
113 | RRIRIRPPRLPRPRPRPYFQPRP | -0.511
114 | RRIRSRPPRLPRPRPRPAFQPRP | -0.0696
115 | RRIRRRPPRLPRPRPRPRCFPRP | 0.474
116 | RRIRERPPRLPRPRPRPGCAPRP | 0.335
117 | RRIRARPPRLPRPRPRPSQNPRP | -0.25
118 | RRIRLRPPRLPRPRPRPEIMPRP | -0.00809
119 | RRIRERPPRLPRPRPRPLLRPRP | -0.152
120 | RRIRPRPPRLPRPRPRPWEKPRP | -0.106
121 | RRIRYRPPRLPRPRPRPPVDPRP | 0.155
122 | RRIRIRPPRLPRPRPRPLNEPRP | -0.497
123 | RRIRFRPPRLPRPRPRPDYMPRP | -0.432
124 | RRIRCRPPRLPRPRPRPALCPRP | 0.185
125 | RRIRTRPPRLPRPRPRPAAVPRP | -0.0116
